# Assay results published in patent US20250136710A1 (COMPUGEN, published 2025).
# B1: PVRIG (receptor, human, UniProt Q6DKI7 41-171, looked up)
# chain: TPEVWVQVRMEATELSSFTIRCGFLGSGSISLVTVSWGGPNGAGGTTLAVLHPERGIRQWAPARQARWETQSSISLILEGSGASSPCANTTFCCKFASFPEGSWEACGSLPPSSDPGLSAPPTPAPILRAD
# notes: also called CD112R; Human Poliovirus Receptor Related Immunoglobulin Domain Containing Protein
# B2: TIGIT (receptor, human, UniProt Q495A1 22-141, looked up)
# chain: MMTGTIETTGNISAEKGGSIILQCHLSSTTAQVTQVNWEQQDQLLAICNADLGWHISPSFKDRVAPGPGLGLTLQSLTVNDTGEYFCIYHTYPDGTYTGRIFLEVLESSVAEHGARFQIP
# notes: also called human TIGIT
# Columns and labels:
# [1] = biological target: T1, PVRL2 (human, UniProt Q92692 32-360, limits assumed); test: not described at this place
# T1 construct: also called PVLR2; CD112
# T1 sequence (looked up): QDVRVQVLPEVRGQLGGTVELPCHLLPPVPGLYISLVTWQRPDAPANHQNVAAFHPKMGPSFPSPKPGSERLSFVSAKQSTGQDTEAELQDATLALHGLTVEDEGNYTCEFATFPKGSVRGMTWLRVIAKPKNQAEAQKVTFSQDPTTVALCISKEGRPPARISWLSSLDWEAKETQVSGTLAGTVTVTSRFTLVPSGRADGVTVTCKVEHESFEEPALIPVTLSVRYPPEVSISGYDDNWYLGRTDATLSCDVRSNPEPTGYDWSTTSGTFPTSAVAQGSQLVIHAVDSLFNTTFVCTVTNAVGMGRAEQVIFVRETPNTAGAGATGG
# [2] = biological target: T2, PVR (UniProt P15151 21-343, limits assumed); test: not described at this place
# T2 construct: also called poliovirus receptor; CD155
# T2 sequence (looked up): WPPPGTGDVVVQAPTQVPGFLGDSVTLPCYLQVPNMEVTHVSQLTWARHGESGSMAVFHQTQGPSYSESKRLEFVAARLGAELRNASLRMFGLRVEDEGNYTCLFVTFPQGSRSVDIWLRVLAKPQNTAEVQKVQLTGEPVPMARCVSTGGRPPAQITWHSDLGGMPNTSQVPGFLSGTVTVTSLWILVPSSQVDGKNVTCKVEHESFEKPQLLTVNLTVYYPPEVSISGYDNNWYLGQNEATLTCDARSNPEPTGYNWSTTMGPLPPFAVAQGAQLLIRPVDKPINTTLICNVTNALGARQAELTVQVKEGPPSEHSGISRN
Binder,binding result [1],binding result [2]
B1,binds,–
B2,–,binds
